Data taken from publication PMC7809043.

Biological target: mouse Atg7 (mAtg7) (mouse) (UniProt Q9D906)
Sequence (Q9D906 whole entry): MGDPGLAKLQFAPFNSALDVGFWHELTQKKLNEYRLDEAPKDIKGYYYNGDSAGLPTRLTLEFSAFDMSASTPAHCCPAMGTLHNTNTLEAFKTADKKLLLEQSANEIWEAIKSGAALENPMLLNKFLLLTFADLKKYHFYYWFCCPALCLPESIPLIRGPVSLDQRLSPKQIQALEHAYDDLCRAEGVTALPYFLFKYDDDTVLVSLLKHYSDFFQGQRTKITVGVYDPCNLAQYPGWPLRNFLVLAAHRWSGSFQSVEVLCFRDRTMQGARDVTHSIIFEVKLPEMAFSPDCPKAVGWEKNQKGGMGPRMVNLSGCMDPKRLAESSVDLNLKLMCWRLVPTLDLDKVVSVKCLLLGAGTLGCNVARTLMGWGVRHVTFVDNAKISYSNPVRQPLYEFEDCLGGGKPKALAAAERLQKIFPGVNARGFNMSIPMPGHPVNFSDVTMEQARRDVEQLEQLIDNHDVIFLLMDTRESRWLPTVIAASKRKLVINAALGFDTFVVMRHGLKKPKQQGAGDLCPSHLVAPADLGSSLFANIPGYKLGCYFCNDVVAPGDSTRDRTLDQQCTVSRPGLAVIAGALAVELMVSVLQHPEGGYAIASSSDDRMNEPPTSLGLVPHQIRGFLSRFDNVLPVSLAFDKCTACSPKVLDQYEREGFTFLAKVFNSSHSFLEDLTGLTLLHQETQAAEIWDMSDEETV

Substance | LC3B-hAtg3^∆90-190 thioester intermediate formed, after 1 h [%] | LC3B–PE conjugase activity compared to the wild type (in vitro conjugation assay) [%] | LC3B-hAtg3 thioester intermediate formed, within 30 min [%]
hAtg3^∆90-190 (from UniProt Q9NT62 1-314) (enzyme) | 25 | 50 | 
human Atg3 (hAtg3), wild type (from UniProt Q9NT62 1-314) (enzyme) |  |  | 70
